Legend:
Assay in all cases: NMR
PBRM1 BD4 = PBRM1 BD4 (UniProt Q86U86 496-637)
PBRM1 BD2 SKY = PBRM1 BD2 SKY (UniProt Q86U86 178-291, S275A;K277A;Y281A)
PBRM1 BD4 KRK = PBRM1 BD4 KRK (UniProt Q86U86 496-637, K511A;R512A;K513A)
PBRM1 BD2 = PBRM1 BD2 (UniProt Q86U86 178-291)
Chain of PBRM1 BD2 (Q86U86 178-291): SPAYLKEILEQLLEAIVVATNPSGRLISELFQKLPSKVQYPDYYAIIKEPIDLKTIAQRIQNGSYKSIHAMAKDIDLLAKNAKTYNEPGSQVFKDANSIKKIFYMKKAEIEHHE

Chain of PBRM1 BD4 (Q86U86 496-637): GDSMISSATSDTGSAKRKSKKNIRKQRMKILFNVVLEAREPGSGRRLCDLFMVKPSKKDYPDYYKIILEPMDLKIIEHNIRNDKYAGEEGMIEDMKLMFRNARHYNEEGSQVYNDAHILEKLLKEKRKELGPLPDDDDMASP
Chain of PBRM1 BD2 SKY (Q86U86 178-291 S275A/K277A/Y281A): as the sequence (Q86U86 178-291) above, with S98A, K100A, Y104A counted along it
Chain of PBRM1 BD4 KRK (Q86U86 496-637 K511A/R512A/K513A): as the sequence (Q86U86 496-637) above, with K16A, R17A, K18A counted along it

Binder: GCGUAGACAGCUGUUCGCAGCUGUCUAUGC (structured_RNA) [dsRNAI]
- Kd (PBRM1 BD4): 120 ± 20 µM
- Kd (PBRM1 BD2 SKY): 200 ± 70 µM
- Kd (PBRM1 BD4 KRK): 1020 ± 40 µM
- Kd (PBRM1 BD2): 25 ± 8 µM
